Values joined by “and” are separate entries in the source; they are usually repeats but may differ in a detail not shown here. Identical values can stand only once.
B1: C. atrox FETUA-3 (recombinant, tag-free) (protein)
chain: FQLAGNMDCNTKGTKDWADIGVRYINEHKLHGYKQALNIIKIFRLLPSDGRSVIFHFKLNLLETECHVLDPTPLENCTVRQQNNHAVEMDCNVRIIHDIATFEDEVFVKCNSTPDSVENVRRNCPKCPILLPPNDPHVIDSVEYVLNKHNEKLSGHIYEVLEISRGQHKYEPEAFYVEFAIVEVNCTAEEAHDDHHDCHPNTDGENHIGFCRATVFRSHASLEKPKEEMFESDCVILHVKKGHAYSHLIEHHVGKYNTSPGRNSTDECVVQCPVAFVNKEVPKDISDHDTPPVEGCPGKALHFQL
B2: C. atrox FETUA-5 (recombinant, tag-free) (protein)
chain: YMVREEDLNCNSKAAKYRADQAVRYINEHNLHGYKQALNIIKTIRLLPSDGLLVVIYLKLNLLETECHVLDPTPVENCTVRQQNNHAVETDCDVKVIYNIETFKDEFLVKCHSTPGSVEKILQDCPKCPILLSLSDPHVVDSVEYVLNKHNEQLSGHVYEVLEISRGQHKYEPEAFYVEFAIVEVNCTAQEAHDDHHHCHPNTAGENHIAFCRATVFRSYASLEKPKDEKFESDCVILHVKEGHAHSHLIEHHTGKHSTSPGHNSTVLNLAHSHNHTSASHESHSHEHVMEVPVAVANREDPTDIPHHHTPSVDGCPGKVLHFKL

Experiments:
Experiment in all cases: cell-based or functional assay
MDC-4 (Crotalus atrox) = MDC-4 (Crotalus atrox) (UniProt Q90282)
[1] = target: whole C. atrox venom (SVMP proteolytic activity)
[2] = target: whole C. atrox venom (SVMP proteolytic activity); remark: listed apart in the source

Sequence of UniProt Q90282 (Q90282 190-609 limits assumed): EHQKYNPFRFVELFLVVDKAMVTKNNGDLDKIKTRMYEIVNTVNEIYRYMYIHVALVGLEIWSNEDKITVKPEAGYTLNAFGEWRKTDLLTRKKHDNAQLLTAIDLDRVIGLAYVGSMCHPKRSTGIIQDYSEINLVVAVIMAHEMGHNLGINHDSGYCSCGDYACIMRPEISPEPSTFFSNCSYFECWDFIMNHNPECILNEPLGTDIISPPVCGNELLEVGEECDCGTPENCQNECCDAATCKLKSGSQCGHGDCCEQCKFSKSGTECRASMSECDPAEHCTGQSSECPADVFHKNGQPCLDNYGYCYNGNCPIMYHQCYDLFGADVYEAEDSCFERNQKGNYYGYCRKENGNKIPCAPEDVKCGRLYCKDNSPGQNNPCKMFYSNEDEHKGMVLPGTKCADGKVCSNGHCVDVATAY

Row | Molecule | amount for ˜50% neutralization of 2 µg MDC-4 proteolysis of Azocoll (MDC-4 (Crotalus atrox)) [µg] | weight of CroFab relative to FETUA-3 for ˜50% neutralization of MDC-4 (MDC-4 (Crotalus atrox)) [fold] | weight of CroFab relative to FETUA-3 for approximately 50% neutralization of whole venom SVMP activity [1] [fold] | inhibition of whole venom proteolysis of Azocoll collagen substrate (10 µg venom) [2]
1 | CroFab antivenom (crotalidae polyvalent immune fab ovine) | 12.1 | 16 | 18 | 
2 | B1 |  |  |  | 2.5 µg and 5 µg
3 | B2 |  |  |  | 20 µg

From patent publication US20240190923A1
